Test results: patent US20160015831A1 (BIOALLIANCE C V, published 2016)
Like-named read-outs stand apart in the source and are kept apart here.

Legend:
human CD22 [1] = target: T1, human CD22 (human, UniProt P20273 20-847); test: cell-based or functional assay
human CD22 [2] = target: T1, human CD22; test: flow cytometry, Daudi cells, Tap18Hr1 conjugate 3.3 µg/mL
Experimental: (§1) 6×10⁴˜1×10⁵ cells were seeded per well in a v-bottomed 96-well plate and incubated with 100 μl of the unconjugated Abs or the ADCs at titrated concentrations or isotype control antibody human IgG at 10 μg/mL. After 30-60 minutes of incubation at 4° C., cells were washed once with 200 μl FACS buffer (lx PBS containing 1% FBS), stained with 100 μl of 1 μg/ml goat F(ab′)2-anti-human IgG (H+L)-RPE (Southern Biotech, Cat. No. 2043-09) in FACS buffer and then incubated at 4° C. for 30˜60 min Cells were washed once with FACS buffer and analyzed by flow cytometer (BD LSR, BD Life Sciences).
(§2) The binding ability of hLL2-Cys variants with or without drug conjugation was evaluated in Daudi and REH cancer cells.

human CD22 [3] = target: T1, human CD22; test: flow cytometry, Daudi cells, unconjugated Ab 3.3 µg/mL
Experimental: as §1
(§3) In general, the site-specific conjugated hLL2-IgG4p ADCs retained antigen reactivity of antibody.

human CD22 [4] = target: T1, human CD22; test: flow cytometry, REH cells, unconjugated Ab 3.3 µg/mL
Experimental: as §1, §3

human CD22 [5] = target: T1, human CD22; test: flow cytometry, Daudi cells, unconjugated Ab 3.3 µg/mL; remark: listed apart in the source
Experimental: as §1, §2

human CD22 [6] = target: T1, human CD22; test: cell-based or functional assay; remark: listed apart in the source
human CD22 [7] = target: T1, human CD22; test: flow cytometry, REH cells, Tap18Hr1 conjugate 3.3 µg/mL
Experimental: as §1, §3

human CD22 [8] = target: T1, human CD22; test: flow cytometry, Daudi cells, Tap18Hr1 conjugate 3.3 µg/mL; remark: listed apart in the source
Experimental: as §1, §3

Row | Binder | MFI (human CD22 [2]) | % inhibition, WST-1 cytotoxicity, Daudi cells, 1.1 µg/mL (human CD22 [1]) | % inhibition, WST-1 cytotoxicity, Daudi cells, 3.3 µg/mL (human CD22 [1]) | % inhibition, WST-1 cytotoxicity, Ramos cells, 1.1 µg/mL (human CD22 [1]) | % inhibition, WST-1 cytotoxicity, Ramos cells, 3.3 µg/mL (human CD22 [1]) | other results
1 | hLL2-T169C-IgG4p (antibody, name in EU numbering, Position is EU numbering) heavy: not shown light: DIQLTQSPSSLSASVGDRVTMSCKSSQSVLYSANHKNYLAWYQQKPGKAPKLLIYWASTRESGVPSRFSGSGSGTDFTFTISSLQPEDIATYYCHQYLSSWTFGGGTKLEIKRTVAAPSVFIFPPSDEQLKSGTASVVCLLNNFYPREAKVQWKVDNALQSGNSQESVTEQDSKDSTYSLSSTLTLSKADYEKHKVYACEVTHQGLSSPVTKSFNRGEC |  |  |  |  |  | MFI (human CD22 [3]): 761; MFI (human CD22 [4]): 74
2 | hLL2-T169C-IgG1 (antibody, Position is EU numbering) heavy: not shown light: DIQLTQSPSSLSASVGDRVTMSCKSSQSVLYSANHKNYLAWYQQKPGKAPKLLIYWASTRESGVPSRFSGSGSGTDFTFTISSLQPEDIATYYCHQYLSSWTFGGGTKLEIKRTVAAPSVFIFPPSDEQLKSGTASVVCLLNNFYPREAKVQWKVDNALQSGNSQESVTEQDSKDSTYSLSSTLTLSKADYEKHKVYACEVTHQGLSSPVTKSFNRGEC |  |  |  |  |  | MFI (human CD22 [5]): 1300
3 | hLL2-S442C-IgG4p (antibody, name in EU numbering, Position is EU numbering) heavy: not shown light: DIQLTQSPSSLSASVGDRVTMSCKSSQSVLYSANHKNYLAWYQQKPGKAPKLLIYWASTRESGVPSRFSGSGSGTDFTFTISSLQPEDIATYYCHQYLSSWTFGGGTKLEIKRTVAAPSVFIFPPSDEQLKSGTASVVCLLNNFYPREAKVQWKVDNALQSGNSQESVTEQDSKDSTYSLSSTLTLSKADYEKHKVYACEVTHQGLSSPVTKSFNRGEC |  |  |  |  |  | MFI (human CD22 [3]): 681; MFI (human CD22 [4]): 70
4 | hLL2-T155C-IgG1 (antibody, Position is EU numbering) heavy: not shown light: DIQLTQSPSSLSASVGDRVTMSCKSSQSVLYSANHKNYLAWYQQKPGKAPKLLIYWASTRESGVPSRFSGSGSGTDFTFTISSLQPEDIATYYCHQYLSSWTFGGGTKLEIKRTVAAPSVFIFPPSDEQLKSGTASVVCLLNNFYPREAKVQWKVDNALQSGNSQESVTEQDSKDSTYSLSSTLTLSKADYEKHKVYACEVTHQGLSSPVTKSFNRGEC |  |  |  |  |  | MFI (human CD22 [5]): 1250
5 | hLL2-S165C-IgG1-Tap18Hr1 (antibody, Tap18Hr1 linker-drug (monomethyl dolastatin 10) on the introduced Cys 165 (EU numbering); site-specific conjugation, DAR 1.58-2.01, also called hLL2-S165C-IgG1 Tap18Hr1 conjugate) heavy: not shown light: DIQLTQSPSSLSASVGDRVTMSCKSSQSVLYSANHKNYLAWYQQKPGKAPKLLIYWASTRESGVPSRFSGSGSGTDFTFTISSLQPEDIATYYCHQYLSSWTFGGGTKLEIKRTVAAPSVFIFPPSDEQLKSGTASVVCLLNNFYPREAKVQWKVDNALQSGNSQESVTEQDSKDSTYSLSSTLTLSKADYEKHKVYACEVTHQGLSSPVTKSFNRGEC | 1230 | 60.5% | 65.1% | 72.6% | 79.4% | 
6 | hLL2-S442C-IgG4p-Tap18Hr1 (antibody, name in EU numbering, Tap18Hr1 linker-drug (monomethyl dolastatin 10) on the introduced Cys 442 (EU numbering); site-specific conjugation, DAR 1.58-2.01, also called hLL2-S442C-IgG4p Tap18Hr1 conjugate) heavy: not shown light: DIQLTQSPSSLSASVGDRVTMSCKSSQSVLYSANHKNYLAWYQQKPGKAPKLLIYWASTRESGVPSRFSGSGSGTDFTFTISSLQPEDIATYYCHQYLSSWTFGGGTKLEIKRTVAAPSVFIFPPSDEQLKSGTASVVCLLNNFYPREAKVQWKVDNALQSGNSQESVTEQDSKDSTYSLSSTLTLSKADYEKHKVYACEVTHQGLSSPVTKSFNRGEC |  |  |  |  |  | % inhibition, WST-1 cytotoxicity, Daudi cells, 1.1 µg/mL (human CD22 [6]): 65.8%; % inhibition, WST-1 cytotoxicity, Daudi cells, 3.3 µg/mL (human CD22 [6]): 70.6%; % inhibition, WST-1 cytotoxicity, NALM-6 cells, 10 ug/ml (human CD22 [6]): 28.5%; % inhibition, WST-1 cytotoxicity, REH cells, 10 ug/ml (human CD22 [6]): 21.3%; % inhibition, WST-1 cytotoxicity, Ramos cells, 1.1 µg/mL (human CD22 [6]): 86.9%; % inhibition, WST-1 cytotoxicity, Ramos cells, 3.3 µg/mL (human CD22 [6]): 88.9%; MFI (human CD22 [7]): 52; MFI (human CD22 [8]): 481

Now from value to binder, other results behind:

Row | MFI (human CD22 [2]) | Binder | % inhibition, WST-1 cytotoxicity, Daudi cells, 1.1 µg/mL (human CD22 [1]) | % inhibition, WST-1 cytotoxicity, Daudi cells, 3.3 µg/mL (human CD22 [1]) | % inhibition, WST-1 cytotoxicity, Ramos cells, 1.1 µg/mL (human CD22 [1]) | % inhibition, WST-1 cytotoxicity, Ramos cells, 3.3 µg/mL (human CD22 [1]) | other results
7 | 1230 | hLL2-T155C-IgG1-Tap18Hr1 (antibody, Tap18Hr1 linker-drug (monomethyl dolastatin 10) on the introduced Cys 155 (EU numbering); site-specific conjugation, DAR 1.58-2.01, also called hLL2-T155C-IgG1 Tap18Hr1 conjugate) heavy: not shown light: DIQLTQSPSSLSASVGDRVTMSCKSSQSVLYSANHKNYLAWYQQKPGKAPKLLIYWASTRESGVPSRFSGSGSGTDFTFTISSLQPEDIATYYCHQYLSSWTFGGGTKLEIKRTVAAPSVFIFPPSDEQLKSGTASVVCLLNNFYPREAKVQWKVDNALQSGNSQESVTEQDSKDSTYSLSSTLTLSKADYEKHKVYACEVTHQGLSSPVTKSFNRGEC | 71% | 72.6% | 84.9% | 88.9% | 
8 | 1370 | hLL2-T169C-IgG1-Tap18Hr1 (antibody, Tap18Hr1 linker-drug (monomethyl dolastatin 10) on the introduced Cys 169 (EU numbering); site-specific conjugation, DAR 1.58-2.01, also called hLL2-T169C-IgG1 Tap18Hr1 conjugate) heavy: not shown light: DIQLTQSPSSLSASVGDRVTMSCKSSQSVLYSANHKNYLAWYQQKPGKAPKLLIYWASTRESGVPSRFSGSGSGTDFTFTISSLQPEDIATYYCHQYLSSWTFGGGTKLEIKRTVAAPSVFIFPPSDEQLKSGTASVVCLLNNFYPREAKVQWKVDNALQSGNSQESVTEQDSKDSTYSLSSTLTLSKADYEKHKVYACEVTHQGLSSPVTKSFNRGEC | 69.8% | 73.6% | 85.7% | 91.4% | 
